This is an account of results in the supplement of paper PMC9112550, “Optimization of the antimicrobial peptide Bac7 by deep mutational scanning” (BMC Biology, 2022).
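Also: peptides expressed intracellularly from a pBAD plasmid library in pooled LB shake-flask culture, induced with 0.3% L-arabinose, DNA abundance read by NGS, three biological replicates, DESeq2 with apeglm shrinkage.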

In this data set the test system is Escherichia coli TOP10. Briefly: shrunken log2 fold change of peptide-encoding DNA abundance (4.5 h post-induction vs induction); higher = less antimicrobial activity (less host growth inhibition). The following applies: time post-induction: 4.5 h; library: site-saturation at positions 5, 18, 19, 20.
Regarding RRIRSRPPRLPRPRPRPSTRPRP, the “shrunken log2 fold change” value was -0.0999.
For RRIRHRPPRLPRPRPRPSKMPRP, the “shrunken log2 fold change” value is -0.858.
Regarding RRIRERPPRLPRPRPRPQRIPRP, the “shrunken log2 fold change” value is -0.0866.
For RRIRARPPRLPRPRPRPFIHPRP, the “shrunken log2 fold change” value is -0.45.
Turning to RRIRPRPPRLPRPRPRPGAQPRP, the “shrunken log2 fold change” value came out at 0.198.
Under RRIRVRPPRLPRPRPRPDHEPRP stands -0.0524.
Then RRIRNRPPRLPRPRPRPYVMPRP, with -1.01; and RRIRQRPPRLPRPRPRPTPVPRP, with 0.286.
Then RRIRDRPPRLPRPRPRPFFYPRP, with -0.0714.
In the case of RRIRARPPRLPRPRPRPDDGPRP, the “shrunken log2 fold change” value was -0.078.
Under RRIRGRPPRLPRPRPRPHYGPRP stands -0.627; under RRIRMRPPRLPRPRPRPYERPRP, -0.0671; under RRIRLRPPRLPRPRPRPYMYPRP, -0.759.
Then RRIRGRPPRLPRPRPRPLCEPRP, with 1.22; and RRIRVRPPRLPRPRPRPKYQPRP, with -0.876; and RRIRPRPPRLPRPRPRPMQSPRP, with 0.524.
Under RRIRFRPPRLPRPRPRPVVHPRP stands -0.106; under RRIRDRPPRLPRPRPRPWECPRP, -0.0018; under RRIRCRPPRLPRPRPRPCVQPRP, -0.153.
With RRIRTRPPRLPRPRPRPPNKPRP, the “shrunken log2 fold change” value is -0.275.
Under RRIRFRPPRLPRPRPRPKCGPRP stands 0.0559.
In the case of RRIRERPPRLPRPRPRPYDIPRP, the “shrunken log2 fold change” value was -0.136.
As to RRIRWRPPRLPRPRPRPNFFPRP, the “shrunken log2 fold change” value came to 0.0572.
For RRIRARPPRLPRPRPRPGFNPRP, the “shrunken log2 fold change” value turned out to be 0.252.
Consider RRIRCRPPRLPRPRPRPHMKPRP, for which the “shrunken log2 fold change” value is -1.1.
Under RRIRMRPPRLPRPRPRPVMVPRP stands 0.0724; under RRIRQRPPRLPRPRPRPVGRPRP, 0.336.
Then RRIRARPPRLPRPRPRPAIYPRP, with -0.0399.
Then RRIRMRPPRLPRPRPRPEEHPRP, with 2.85; and RRIRGRPPRLPRPRPRPVFCPRP, with 0.206; and RRIRVRPPRLPRPRPRPVLFPRP, with 0.00022.
Consider RRIRTRPPRLPRPRPRPDYRPRP, for which the “shrunken log2 fold change” value was found to be 0.0112.
For the sequence RRIRNRPPRLPRPRPRPFNEPRP, the “shrunken log2 fold change” value is -0.198.
RRIRERPPRLPRPRPRPCWGPRP: the “shrunken log2 fold change” value was determined as 0.0218.
Under RRIRGRPPRLPRPRPRPIRHPRP stands 0.0519.
Under RRIRDRPPRLPRPRPRPRTAPRP stands 0.445; under RRIRCRPPRLPRPRPRPPTMPRP, 0.143.
Then RRIRKRPPRLPRPRPRPTTWPRP, with 0.414; and RRIRKRPPRLPRPRPRPSWNPRP, with -0.15.
For RRIRRRPPRLPRPRPRPMWQPRP, the “shrunken log2 fold change” value stood at 0.381.
Then RRIRSRPPRLPRPRPRPNDEPRP, with -0.276.
Take RRIRSRPPRLPRPRPRPFIMPRP: the “shrunken log2 fold change” value was -1.09.
Under RRIRGRPPRLPRPRPRPHTGPRP stands -0.0945.
Under RRIRMRPPRLPRPRPRPMDAPRP stands 0.781; under RRIRSRPPRLPRPRPRPCKGPRP, -0.3.
Under RRIRSRPPRLPRPRPRPIYKPRP stands -0.243.
In the case of RRIRKRPPRLPRPRPRPVQIPRP, the “shrunken log2 fold change” value came to 0.13.
With RRIRVRPPRLPRPRPRPMNYPRP, the “shrunken log2 fold change” value is -0.128.
Then RRIRYRPPRLPRPRPRPDGSPRP, with -0.317; and RRIRSRPPRLPRPRPRPIGVPRP, with 0.049.
RRIRIRPPRLPRPRPRPGLYPRP: the “shrunken log2 fold change” value was -0.0503.
Then RRIRDRPPRLPRPRPRPFRAPRP, with -0.0871.
Then RRIRFRPPRLPRPRPRPEEGPRP, with 0.00408; and RRIRKRPPRLPRPRPRPADLPRP, with 0.056; and RRIRLRPPRLPRPRPRPLHDPRP, with -0.149.
Under RRIRKRPPRLPRPRPRPVERPRP stands 0.204.
Regarding RRIRWRPPRLPRPRPRPLYQPRP, the “shrunken log2 fold change” value was -0.363.
Under RRIRDRPPRLPRPRPRPGLTPRP stands 0.262; under RRIRQRPPRLPRPRPRPHRLPRP, -0.0506.
Take RRIRHRPPRLPRPRPRPIISPRP: the “shrunken log2 fold change” value is -0.247.
Then RRIRTRPPRLPRPRPRPEFHPRP, with -0.351; and RRIRKRPPRLPRPRPRPFYMPRP, with -0.117.
As for RRIRGRPPRLPRPRPRPWNLPRP, the “shrunken log2 fold change” value amounted to 0.000264.
With RRIRIRPPRLPRPRPRPQWYPRP, the “shrunken log2 fold change” value is -0.485.
In the case of RRIRSRPPRLPRPRPRPWHVPRP, the “shrunken log2 fold change” value is -0.0882.
On to RRIRDRPPRLPRPRPRPAYPPRP, for which the “shrunken log2 fold change” value is 0.147.
As to RRIRWRPPRLPRPRPRPCWVPRP, the “shrunken log2 fold change” value was -0.116.
Then RRIRGRPPRLPRPRPRPGPRPRP, with 1.1; and RRIRIRPPRLPRPRPRPEQTPRP, with 0.0649.
On to RRIRVRPPRLPRPRPRPFQLPRP, for which the “shrunken log2 fold change” value stood at 0.142.
Under RRIRKRPPRLPRPRPRPTKFPRP stands 0.663; under RRIRMRPPRLPRPRPRPSRYPRP, -0.173; under RRIRDRPPRLPRPRPRPGTWPRP, 0.475.
RRIRMRPPRLPRPRPRPYDLPRP: the “shrunken log2 fold change” value is -0.242.
RRIRTRPPRLPRPRPRPGHFPRP: the “shrunken log2 fold change” value is -0.215.
Take RRIRGRPPRLPRPRPRPLLWPRP: the “shrunken log2 fold change” value worked out at 0.896.
As to RRIRARPPRLPRPRPRPTFFPRP, the “shrunken log2 fold change” value was found to be 0.197.
Then RRIRGRPPRLPRPRPRPHAWPRP, with 0.595.
Take RRIRMRPPRLPRPRPRPQHKPRP: the “shrunken log2 fold change” value was -0.0523.
As to RRIRQRPPRLPRPRPRPNYCPRP, the “shrunken log2 fold change” value was -0.0656.
RRIRPRPPRLPRPRPRPIIHPRP: the “shrunken log2 fold change” value is -0.707.
Under RRIRWRPPRLPRPRPRPMIMPRP stands -0.0612.
In the case of RRIRQRPPRLPRPRPRPEPWPRP, the “shrunken log2 fold change” value amounted to 0.153.
Turning to RRIRRRPPRLPRPRPRPAEKPRP, the “shrunken log2 fold change” value was 0.225.
Then RRIRERPPRLPRPRPRPGLTPRP, with -0.174.
Under RRIRGRPPRLPRPRPRPWLNPRP stands -0.00435.
Consider RRIRDRPPRLPRPRPRPQLPPRP, for which the “shrunken log2 fold change” value was 0.186.
With RRIRERPPRLPRPRPRPTRFPRP, the “shrunken log2 fold change” value was 0.169.
As for RRIRPRPPRLPRPRPRPLNMPRP, the “shrunken log2 fold change” value was -0.432.
Then RRIRKRPPRLPRPRPRPRGDPRP, with 0.396; and RRIRYRPPRLPRPRPRPWITPRP, with -0.0192.
For the sequence RRIRNRPPRLPRPRPRPPVSPRP, the “shrunken log2 fold change” value is -0.401.
As to RRIRARPPRLPRPRPRPNSCPRP, the “shrunken log2 fold change” value was -0.205.
Consider RRIRLRPPRLPRPRPRPLGNPRP, for which the “shrunken log2 fold change” value was 0.102.
As to RRIRRRPPRLPRPRPRPNPKPRP, the “shrunken log2 fold change” value was determined as 0.172.
Regarding RRIRQRPPRLPRPRPRPHWAPRP, the “shrunken log2 fold change” value is -0.143.
Under RRIRLRPPRLPRPRPRPWFSPRP stands -0.225; under RRIRLRPPRLPRPRPRPHMSPRP, -0.325.
With RRIRLRPPRLPRPRPRPLREPRP, the “shrunken log2 fold change” value turned out to be 0.332.
Then RRIRRRPPRLPRPRPRPFMYPRP, with -0.174; and RRIRGRPPRLPRPRPRPLNQPRP, with 0.725; and RRIRWRPPRLPRPRPRPKFFPRP, with 0.00459.
Under RRIRGRPPRLPRPRPRPCVYPRP stands 0.486; under RRIRQRPPRLPRPRPRPVVGPRP, 0.101; under RRIRARPPRLPRPRPRPCGQPRP, 0.25.
As for RRIRIRPPRLPRPRPRPTMHPRP, the “shrunken log2 fold change” value was -0.443.
Take RRIRDRPPRLPRPRPRPLDIPRP: the “shrunken log2 fold change” value is 0.0227.
In the case of RRIRRRPPRLPRPRPRPGSHPRP, the “shrunken log2 fold change” value was -0.154.
Under RRIRERPPRLPRPRPRPNFFPRP stands -0.0705; under RRIRFRPPRLPRPRPRPFGPPRP, -0.159.
Regarding RRIRKRPPRLPRPRPRPKEEPRP, the “shrunken log2 fold change” value is 0.0277.
Under RRIRARPPRLPRPRPRPMHYPRP stands -0.0399; under RRIRDRPPRLPRPRPRPGKEPRP, -0.0214; under RRIRRRPPRLPRPRPRPGVNPRP, -0.271.
Under RRIRTRPPRLPRPRPRPHDNPRP stands -0.574; under RRIRFRPPRLPRPRPRPWLIPRP, -0.441.
As for RRIRHRPPRLPRPRPRPPYLPRP, the “shrunken log2 fold change” value was -0.321.
Then RRIRDRPPRLPRPRPRPIKTPRP, with 0.058; and RRIRQRPPRLPRPRPRPIEAPRP, with -0.00454; and RRIRFRPPRLPRPRPRPQTEPRP, with -0.00927.
As for RRIRGRPPRLPRPRPRPGPHPRP, the “shrunken log2 fold change” value was found to be 0.57.
Then RRIRLRPPRLPRPRPRPDRWPRP, with -0.0824.
In the case of RRIRHRPPRLPRPRPRPFWNPRP, the “shrunken log2 fold change” value came out at 0.034.
Then RRIRTRPPRLPRPRPRPTLHPRP, with -0.126; and RRIRWRPPRLPRPRPRPGNCPRP, with -0.0763.
